Consider two substances from paper PMC8617249, “Pharmacokinetic and pharmacodynamic similarity between SAR341402 insulin aspart and Japan-approved NovoRapid in healthy Japanese subjects” (Scientific Reports, 2021).

One series deals with healthy Japanese males. Description: 10 h automated euglycemic clamp, glucose infusion rate (glucodynamics). In kind it is in vivo, human. Conditions: single 0.3 U/kg s.c.; for GIR-AUC0-10 h, gMean (% CV) / GIRmax, gMean (% CV) / median GIR-tmax (time to reach GIRmax): healthy Japanese males, 10 h euglycemic clamp; for GIR-AUC0-10 h, gMean (% CV): body weight standardized GIR, N = 36 SAR-Asp, 38 NN-Asp-Jp; for GIR-AUC0-10 h, gMean (% CV) / GIRmax, gMean (% CV): geometric mean (%CV); for GIRmax, gMean (% CV): smoothed GIR (LOESS, 0.06), N = 36/38. How it is done: Each dosing visit included a 10 h automated euglycemic clamp procedure (STG-55, Artificial Endocrine Pancreas; Nikkiso Co, Ltd, Tokyo, Japan)[13]. The premise of performing the clamp procedure is that the blood glucose lowering effect of an administered insulin is antagonized by a variable infusion of glucose so that blood glucose is maintained (or clamped) at a target level[2],[14]. The metabolic profile of the investigated insulin is characterized by the glucose infusion rate (GIR) needed to keep blood glucose as close as possible at its predefined target level during the glucose clamp.
Following an overnight fast of at least 10 h, subjects were connected to the clamp device and their baseline blood glucose was determined (via glucose oxidase sensors that measure whole-blood glucose levels) before dosing of the study drug. For each subject, this was calculated as the mean of four glucose measurements at 30, 20, 10 and 1 min before administration of the study drugs. The clamp procedure was not performed in those subjects having a baseline glucose level less than 70 mg/dL ([…]). After dosing, onset of insulin action in each subject was when the blood glucose dropped below the target level of the clamp procedure, which was when it was 5 mg/dL (0.28 mmol/L) less than their fasting baseline value.
Blood glucose levels were measured in 1-min intervals, and using a predefined algorithm the clamp device automatically administered a variable infusion of 10% glucose in response to changes in glucose to maintain each subject at their target glucose level. The GIR, being the amount of external glucose needed to keep a subject’s blood glucose concentration at its target level, was continuously measured, and recorded by the STG-55 device. GIR profiles reflected the metabolic effects of SAR-Asp and NN-Asp-Jp over time.
The GIR over time was the primary pharmacodynamic parameter measured during the clamp procedure. The area under the body weight-standardized GIR time curve [GIR-AUC] measured insulin mediated glucose uptake into tissues. Subjects completing at least one clamp procedure with no major or critical deviations were included in the pharmacodynamic analysis dataset. Individual GIR values in each treatment group were standardized for body weight and subjected to a smoothing procedure using a locally weighted scatterplot smoothing (LOESS) function (SAS, PROC LOESS, factor 0.06). A smoothing factor of 6% was used based on the expected morphology of the GIR-profiles. Individual blood glucose levels were also subjected to a smoothing procedure. Fitted data were used to calculate the pharmacodynamic parameters, including the primary parameters of maximum smoothed body weight standardized GIR (GIRmax) and GIR-AUC over 10 h (GIR-AUC0–10 h), and the secondary parameter of time to reach GIRmax (GIR-tmax).
(§1) Log-transformed pharmacokinetic and pharmacodynamic parameter estimates for SAR-Asp and NN-Asp-Jp were analyzed using a linear mixed-effects model with period, sequence, and treatment as fixed effects and subject as a random effect. For each parameter, the model-based difference in treatment means along with the confidence limits (90% for pharmacokinetic parameters, 95% for pharmacodynamic parameters) was back-transformed to provide estimates for the ratio of geometric means (gMean) between treatments (SAR-Asp/NN-Asp-Jp) and the corresponding confidence limits. Similarity for the pharmacokinetic parameters (INS-AUCinf and INS-Cmax) and bioequipotency for the pharmacodynamic parameters (GIR-AUC0–10 h and GIRmax) was concluded if the confidence limits (90% and 95% confidence intervals [CIs], respectively) of the treatment ratios were entirely within the 0.80–1.25 equivalence interval, in agreement with regulatory guidance[2],[18]. Data was analyzed using SAS v9.4 (SAS Institute, Cary, NC).

The nature of series [1]: Plasma insulin aspart pharmacokinetics after a single subcutaneous dose (LC-MS/MS, noncompartmental). In kind it is in vivo, human. Conditions: single 0.3 U/kg s.c.; for INS-AUCinf, gMean (% CV) / INS-Cmax, gMean (% CV) / INS-AUClast, gMean (% CV): healthy Japanese males, fasting, plasma, LC-MS/MS, geometric mean (%CV); for INS-AUCinf, gMean (% CV): extrapolated to infinity; for INS-AUCinf, gMean (% CV) / INS-AUClast, gMean (% CV): N = 39/40; for INS-Cmax, gMean (% CV): N = 39 SAR-Asp, 40 NN-Asp-Jp; for INS-AUClast, gMean (% CV): time 0 to last quantifiable point.
Text: Following a screening visit 3–28 days before the first period, subjects enrolled into the study were admitted to the study clinic on the day before dosing. On the day of treatment, they were randomized (computer-generated by sponsor) to one of the two treatment sequences (see Supplementary Fig. S1). Subjects received a single subcutaneous dose of 0.3 U/kg SAR-Asp or NN-Asp-Jp in the first treatment period in randomized order followed by the other drug in the second treatment period. A wash-out period of 7–18 days separated each treatment period, with an end-of-study visit performed 4–8 days after the last dose.
Venous blood samples for pharmacokinetic analysis were collected before dosing of study drug, and then every 15 to 60 min during the 10 h clamp period. Samples were centrifuged within 20 min of collection. Plasma was collected and kept frozen (− 60 to − 80 °C) until analysis. Plasma concentrations of SAR-Asp and NN-Asp-Jp were analyzed by using a validated liquid chromatography-tandem mass spectrometry (LC–MS/MS) assay at Syneos Health (Quebec, Canada). Plasma concentrations within the validated concentration range (100–8000 pg/mL) were used to calculated pharmacokinetic parameters. Inter-assay precision (% coefficient of variation [CV]) and inter-assay accuracy (%bias) during validation were ≤ 15%.
The pharmacokinetic analysis dataset included subjects who completed at least one treatment period, had measurable insulin aspart concentrations and no major or critical deviations. Parameter estimates for SAR-Asp and NN-Asp-Jp were calculated by using standard noncompartmental methods with Phoenix WinNonlin 8.1 (Certara, Princeton, NJ). Area under the plasma insulin aspart concentration–time curve was calculated by the trapezoidal method from 0 to the time of the last concentration above the limit of quantification (INS-AUClast) and extrapolated to infinity (INS-AUCinf). Maximum plasma insulin aspart concentration observed (INS-Cmax) and INS-AUClast were the primary pharmacokinetic endpoints of the study. INS-AUCinf was a secondary endpoint.
as §1

The mark [2] stands for this setting: ratio of geometric means, linear mixed-effects model, 10 h clamp, equivalence range 0.80–1.25.
The mark [3] stands for this setting: ratio of geometric means, linear mixed-effects model, equivalence range 0.80–1.25.

Regarding insulin aspart [NN-Asp-Jp], in the series on healthy Japanese males, the “GIR-AUC0-10 h, gMean (% CV)” value is 2098.06 (23.5) mg/kg; the “GIRmax, gMean (% CV)” value is 8.72 (21.0) mg/(kg·min); the “median GIR-tmax (time to reach GIRmax)” value turned out to be 2.35 h. Also, in series [1], the “INS-AUCinf, gMean (% CV)” value is reported as 15,200 (27) pg·h/mL; the “INS-Cmax, gMean (% CV)” value is reported as 6690 (31) pg/mL; the “INS-AUClast, gMean (% CV)” value is on record as 15,100 (27) pg·h/mL.

With insulin aspart [SAR-Asp], in the series with healthy Japanese males, the “GIR-AUC0-10 h, gMean (% CV)” value is reported as 2054.12 (22.2) mg/kg; the “GIRmax, gMean (% CV)” value was 8.70 (20.9) mg/(kg·min); the “median GIR-tmax (time to reach GIRmax)” value is on record as 2.82 h. Besides, in the series with healthy Japanese males (setting [2]), the “GIR-AUC0-10 h mean ratio SAR-Asp/NN-Asp-Jp, point estimate (95% CI)” value was 1.00 and the “GIRmax mean ratio SAR-Asp/NN-Asp-Jp, point estimate (95% CI)” value was 1.01. In addition, in series [1], the “INS-AUCinf, gMean (% CV)” value is 15,400 (26) pg·h/mL; the “INS-Cmax, gMean (% CV)” value is given as 6690 (32) pg/mL; the “INS-AUClast, gMean (% CV)” value is recorded as 15,300 (27) pg·h/mL. Further, in series [1] (setting [3]), the “INS-AUCinf mean ratio SAR-Asp/NN-Asp-Jp, point estimate (90% CI)” value was 1.02; the “INS-AUClast mean ratio SAR-Asp/NN-Asp-Jp, point estimate (90% CI)” value is on record as 1.02; the “INS-Cmax mean ratio SAR-Asp/NN-Asp-Jp, point estimate (90% CI)” value was 1.00.
